Measured values reported in the supplement of paper PMC6757056.
± gives the standard deviation of the averaged measurements.

B1: library; a variant is named by its letters at N, in order (parent)
chain: GCUGUCACCGGAAUACCAGCAUCGUCUUGAUGCCCUUGGAAGUCCGGUCUGAUGAGUCCNNNNNGGACGAAACAGC

Legend:
[1] = variants of: B1; assay: FACS-Seq fitted mean relative fluorescence mCherry/BFP without ligand (log10 relative fluorescence); higher = higher reporter protein expression; details: HEK293T, ligand present: no
In short: (§1)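 Fluorescence values are fitted normal means of bin counts along the mCherry/BFP axis. HEK293T libraries lentivirally carrying the ribozyme switch in an mCherry reporter, with an EF1α-BFP marker, were enriched, exposed to ligand or not for 48 h, and sorted into 6 bins. Genomic DNA per bin was PCR-amplified, barcoded and run on MiSeq. Means of log10(mCherry/BFP) were scaled to five spiked-in control ribozymes.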

[2] = variants of: B1; assay: normalized RNA/DNA level with ligand (relative to sTRSVctl = 100) (log10 (% of sTRSVctl)); higher = less ribozyme self-cleavage, higher mRNA level; details: ligand concentration (+) RNA-Seq: 5 mM, HEK293T, reporter: mCherry (pCS4076), ligand present: yes
In short: (§2)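 HEK293T cells received ligand, where used, 1 h before being transfected with 4 µg per 6-well well of library plasmids encoding reporter-linked ribozyme switches. After 72 h, RNA was extracted with EDTA and sequenced. RNA level was derived from RNA reads per DNA read, normalized to a spiked-in non-cleaving sequence or the top sequences, then scaled and log-transformed. Values were ×100 then log10, the top set was 25 sequences, and the minimum was 100 DNA reads.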

[3] = variants of: B1; assay: normalized RNA/DNA level without ligand (relative to sTRSVctl = 100) (log10 (% of sTRSVctl)); higher = less ribozyme self-cleavage, higher mRNA level; details: HEK293T, reporter: mCherry (pCS4076), ligand present: no
In short: as §2

[4] = variants of: B1; assay: FACS-Seq fitted mean relative fluorescence mCherry/BFP with ligand (log10 relative fluorescence); ligand concentration (+) FACS-Seq: 1 mM; higher = higher reporter protein expression; details: HEK293T, ligand present: yes
In short: as §1

| Variant | FACS-Seq fitted mean (log10) [1] | normalized RNA/DNA level with ligand (log10) [2] | normalized RNA/DNA level without ligand (log10) [3] | FACS-Seq fitted mean (log10) [4] |
| --- | --- | --- | --- | --- |
| AGCAA | 0.327 ± 0.12 | 1.94 ± 0.035 | 1.46 ± 0.09 | 0.627 ± 0.067 |
| UGAUA | 0.3741 ± 0.0021 | 1.955 ± 0.0019 | 1.42 ± 0.17 | 0.789 ± 0.084 |
| UGAUU | 0.448 ± 0.028 | 1.96 ± 0.071 | 1.7 ± 0.12 | 0.437 ± 0.11 |
| UGAUG | 0.912 ± 0.0092 | 2.005 ± 0.00081 | 1.91 ± 0.14 | 0.848 ± 0.11 |
| UGAUC | 0.156 ± 0.012 | 1.88 ± 0.045 | 1.91 ± 0.099 | 0.331 ± 0.012 |
| CGGUC | 1.07 ± 0.037 | 1.98 ± 0.051 | 1.82 ± 0.076 | 1.13 ± 0.05 |
| CGGUA | 0.028 ± 0.083 | 1.894 ± 0.0076 | 1.3 ± 0.025 | 0.602 ± 0.0084 |
| CGGAU | 0.215 ± 0.064 | 2 ± 0.11 | 1.65 ± 0.11 | 0.522 ± 0.046 |
| CGGAC | 0.877 ± 0.081 | 1.93 ± 0.024 | 1.8 ± 0.087 | 0.793 ± 0.037 |
| CGGAA | -0.0214 ± 0.074 | 1.9 ± 0.055 | 1.25 ± 0.17 | 0.354 ± 0.0054 |
| CCGCU | 0.291 ± 0.035 | 2.09 ± 0.012 | 1.81 ± 0.024 | 0.381 ± 0.0062 |
| CCGCC | 1.17 ± 0.096 | 2.0217 ± 0.0019 | 1.96 ± 0.033 | 1.18 ± 0.036 |
| AGCGU | -0.0881 ± 0.074 | 2.01 ± 0.027 | 1.82 ± 0.055 | 0.017 ± 0.14 |
| AGCGA | 0.281 ± 0.033 | 1.99 ± 0.025 | 1.68 ± 0.058 | 0.503 ± 0.017 |
| AGCGC | 0.459 ± 0.1 | 2.058 ± 0.016 | 1.98 ± 0.047 | 0.52 ± 0.18 |
| CGGCC | 0.745 ± 0.024 | 2.06 ± 0.1 | 2.03 ± 0.1 | 0.6421 ± 0.002 |
| CGGCA | 0.507 ± 0.017 | 1.96 ± 0.046 | 1.485 ± 0.0076 | 0.7564 ± 0.0075 |
| UCUCC | 0.732 ± 0.037 | 1.93 ± 0.04 | 1.95 ± 0.023 | 0.7862 ± 0.0054 |
| CGCUU | 0.746 ± 0.19 | 1.99 ± 0.087 | 1.62 ± 0.075 | 0.896 ± 0.11 |
| CGCUA | 0.353 ± 0.072 | 1.87 ± 0.069 | 1.48 ± 0.041 | 0.612 ± 0.076 |
| CGCCU | 0.291 ± 0.031 | 2.08 ± 0.074 | 1.78 ± 0.12 | 0.38 ± 0.021 |
| CGCCC | 0.615 ± 0.021 | 2.01 ± 0.14 | 2.02 ± 0.04 | 0.725 ± 0.098 |
| UGGCU | 1.01 ± 0.063 | 2.01 ± 0.022 | 1.948 ± 0.011 | 0.992 ± 0.099 |
| CCUCC | 0.993 ± 0.035 | 2.092 ± 0.0026 | 2.0411 ± 0.0014 | 0.89 ± 0.046 |

| Variant | FACS-Seq fitted mean (log10) [1] | normalized RNA/DNA level with ligand (log10) [2] | normalized RNA/DNA level without ligand (log10) [3] | FACS-Seq fitted mean (log10) [4] |
| --- | --- | --- | --- | --- |
| CCUCU | 0.198 ± 0.07 | 1.93 ± 0.039 | 1.87 ± 0.036 | 0.0585 ± 0.1 |
| CGAGC | 0.548 ± 0.016 | 2.013 ± 0.0077 | 1.94 ± 0.042 | 0.508 ± 0.037 |
| CGAGA | 0.788 ± 0.0071 | 1.93 ± 0.022 | 1.58 ± 0.18 | 0.841 ± 0.032 |
| CGAGU | 0.892 ± 0.093 | 1.992 ± 0.01 | 1.9 ± 0.02 | 0.873 ± 0.12 |
| AGGUA | 0.987 ± 0.032 | 1.979 ± 0.0062 | 1.66 ± 0.04 | 1.26 ± 0.14 |
| AGGUC | 0.52 ± 0.032 | 1.95 ± 0.15 | 1.872 ± 0.016 | 0.587 ± 0.049 |
| ACGCG | 1.002 ± 0.0074 | 2.009 ± 0.009 | 1.86 ± 0.036 | 1.09 ± 0.058 |
| ACGCU | 0.995 ± 0.016 | 2.08 ± 0.17 | 1.914 ± 0.019 | 1.01 ± 0.031 |
| AGCCG | 0.757 ± 0.026 | 1.99 ± 0.14 | 1.93 ± 0.11 | 0.782 ± 0.054 |
| AGCCA | 0.758 ± 0.027 | 1.98 ± 0.038 | 1.857 ± 0.0057 | 0.919 ± 0.027 |
| AGCCU | 0.951 ± 0.011 | 1.98 ± 0.023 | 1.91 ± 0.11 | 1.06 ± 0.071 |
| ACUCG | 1.06 ± 0.14 | 1.95 ± 0.2 | 1.89 ± 0.11 | 1.17 ± 0.035 |
| ACUCU | -0.437 ± 0.075 | 2.01 ± 0.052 | 1.93 ± 0.075 | -0.125 ± 0.13 |
| ACUCC | 0.767 ± 0.21 | 2 ± 0.068 | 1.96 ± 0.026 | 0.658 ± 0.024 |
| ACUCA | 0.648 ± 0.038 | 1.97 ± 0.14 | 1.92 ± 0.076 | 0.659 ± 0.088 |
| UGCUU | 0.84 ± 0.14 | 1.99 ± 0.079 | 1.95 ± 0.054 | 0.851 ± 0.037 |
| UCGGU | 0.776 ± 0.2 | 2.084 ± 0.0052 | 1.8 ± 0.16 | 0.68 ± 0.021 |
| UGAGA | 0.307 ± 0.012 | 1.922 ± 0.0069 | 1.5 ± 0.13 | 0.709 ± 0.041 |
| UGAGU | 0.6996 ± 0.0034 | 2.02 ± 0.17 | 1.86 ± 0.12 | 0.676 ± 0.013 |
| UGAGC | 1.21 ± 0.082 | 1.9256 ± 8.8e-05 | 1.98 ± 0.13 | 1.24 ± 0.12 |
| UCUUU | 0.989 ± 0.015 | 2.019 ± 0.0067 | 1.86 ± 0.14 | 1.04 ± 0.1 |
| UCUUG | 0.933 ± 0.1 | 1.94 ± 0.18 | 1.94 ± 0.037 | 1.01 ± 0.025 |
| AGAAG | 0.448 ± 0.033 | 1.93 ± 0.025 | 1.61 ± 0.17 | 0.576 ± 0.014 |
| AGAAC | 0.387 ± 0.005 | 1.9164 ± 0.00023 | 1.78 ± 0.12 | 0.507 ± 0.016 |

| Variant | FACS-Seq fitted mean (log10) [1] | normalized RNA/DNA level with ligand (log10) [2] | normalized RNA/DNA level without ligand (log10) [3] | FACS-Seq fitted mean (log10) [4] |
| --- | --- | --- | --- | --- |
| AGAAA | -0.278 ± 0.17 | 1.853 ± 0.0095 | 1.12 ± 0.042 | 0.515 ± 0.022 |
| ACGGA | 0.425 ± 0.14 | 1.95 ± 0.02 | 1.66 ± 0.073 | 0.602 ± 0.1 |
| ACGGC | 1.25 ± 0.15 | 1.97 ± 0.059 | 1.97 ± 0.067 | 1.17 ± 0.014 |
| ACGGU | 0.778 ± 0.062 | 1.89 ± 0.13 | 1.7 ± 0.095 | 1.004 ± 0.0021 |
| CCGGC | 0.695 ± 0.065 | 2 ± 0.13 | 1.97 ± 0.044 | 0.721 ± 0.011 |
| CCGGA | 0.978 ± 0.089 | 2.08 ± 0.027 | 1.9 ± 0.044 | 1.05 ± 0.15 |
| CCGGU | 0.937 ± 0.27 | 1.97 ± 0.064 | 1.84 ± 0.064 | 0.944 ± 0.14 |
| AGGAA | 0.0559 ± 0.0084 | 1.85 ± 0.12 | 1.17 ± 0.079 | 0.552 ± 0.029 |
| AGGAC | 0.549 ± 0.067 | 1.97 ± 0.089 | 1.81 ± 0.12 | 0.721 ± 0.074 |
| AGGAG | 0.642 ± 0.032 | 1.92 ± 0.022 | 1.73 ± 0.072 | 0.834 ± 0.045 |
| ACUUA | 0.5998 ± 0.0045 | 2.05 ± 0.037 | 1.78 ± 0.032 | 0.66 ± 0.015 |
| ACUUU | 0.872 ± 0.15 | 2.012 ± 0.0039 | 1.89 ± 0.022 | 0.813 ± 0.11 |
| UCUGA | 0.9 ± 0.11 | 2.04 ± 0.035 | 1.89 ± 0.056 | 0.983 ± 0.1 |
| UCUGU | 0.6475 ± 0.0019 | 2.099 ± 0.014 | 2.01 ± 0.1 | 0.6442 ± 0.0018 |
| UCUGG | 0.976 ± 0.062 | 2.057 ± 0.0087 | 2.01 ± 0.064 | 1.012 ± 0.0062 |
| UCUGC | 0.365 ± 0.16 | 1.98 ± 0.096 | 2.02 ± 0.032 | 0.642 ± 0.034 |
| CGGGC | 0.725 ± 0.09 | 1.94 ± 0.065 | 2.01 ± 0.0021 | 0.717 ± 0.016 |
| CGGGA | 0.508 ± 0.043 | 2.01 ± 0.033 | 1.74 ± 0.071 | 0.753 ± 0.077 |
| UCGCU | 0.4314 ± 0.00049 | 2.03 ± 0.11 | 1.891 ± 0.0058 | 0.533 ± 0.055 |
| UCGCC | 1.03 ± 0.1 | 2 ± 0.095 | 1.872 ± 0.014 | 1.06 ± 0.095 |
| CCGUA | 0.864 ± 0.056 | 2 ± 0.099 | 1.65 ± 0.12 | 0.992 ± 0.043 |
| CCGUC | 0.556 ± 0.018 | 2.11 ± 0.037 | 1.93 ± 0.073 | 0.413 ± 0.034 |
| AGACA | 0.0301 ± 0.062 | 1.87 ± 0.04 | 1.72 ± 0.031 | 0.35727 ± 0.0003 |
| AGACG | 0.74 ± 0.1 | 2.01 ± 0.082 | 1.89 ± 0.021 | 0.863 ± 0.018 |
